Reference: publication PMC4990422, “Coupling between the DEAD-box RNA helicases Ded1p and eIF4A” (eLife, 2016)

Assays:
Details in all cases: both partners purified
[1] = target: T1, Ded1p-eIF4G complex (S. cerevisiae, UniProt P06634 1-604; P39935 1-952; P07260 1-213); test: global fit of RNA unwinding time courses to a thermodynamic model; K1/2 of a binding step calculated with the model of Figure 4A; RNA bound to the binder before the step, ATP bound to Ded1p
T1 construct: Ded1p, S. cerevisiae, wild type, as Wm1; eIF4G1, S. cerevisiae, as in Wm3; eIF4E, S. cerevisiae, as in Wm3; present in the preparations of eIF4G; State of the thermodynamic model; also called DG; DTG; source: formed from the purified recombinant proteins; copies: + +
T1 sequence (P06634 whole entry, one chain of several): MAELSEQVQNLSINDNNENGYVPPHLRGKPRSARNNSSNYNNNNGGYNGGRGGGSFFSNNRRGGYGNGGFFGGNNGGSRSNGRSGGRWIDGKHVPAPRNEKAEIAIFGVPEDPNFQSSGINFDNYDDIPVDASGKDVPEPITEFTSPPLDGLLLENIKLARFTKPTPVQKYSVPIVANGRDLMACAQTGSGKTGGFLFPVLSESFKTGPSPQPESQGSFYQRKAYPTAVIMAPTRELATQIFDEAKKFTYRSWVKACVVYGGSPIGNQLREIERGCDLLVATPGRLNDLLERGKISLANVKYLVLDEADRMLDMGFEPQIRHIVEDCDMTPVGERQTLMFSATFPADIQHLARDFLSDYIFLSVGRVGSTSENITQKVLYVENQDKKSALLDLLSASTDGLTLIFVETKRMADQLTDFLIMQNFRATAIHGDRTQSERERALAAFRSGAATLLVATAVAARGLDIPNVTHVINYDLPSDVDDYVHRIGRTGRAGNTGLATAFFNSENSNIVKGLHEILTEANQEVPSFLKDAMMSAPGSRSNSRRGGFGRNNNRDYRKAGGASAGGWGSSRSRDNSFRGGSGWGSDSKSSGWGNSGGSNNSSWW

[2] = target: T1, Ded1p-eIF4G complex; test: global fit of RNA unwinding time courses to a thermodynamic model; K1/2 of a binding step calculated with the model of Figure 4A; RNA bound to the target before the step, no ATP
[3] = target: T2, eIF4G (S. cerevisiae, UniProt P39935 1-952; P07260 1-213); test: as above
T2 construct: eIF4G1, scaffolding protein of translation initiation, S. cerevisiae; present in the preparations of eIF4G; the model treats G as one unit; also called eIF4G1; S•Tag-eIF4G; source: recombinant, expression and purification previously described (Hilliker et al., 2011)
T2 sequence (looked up) 1: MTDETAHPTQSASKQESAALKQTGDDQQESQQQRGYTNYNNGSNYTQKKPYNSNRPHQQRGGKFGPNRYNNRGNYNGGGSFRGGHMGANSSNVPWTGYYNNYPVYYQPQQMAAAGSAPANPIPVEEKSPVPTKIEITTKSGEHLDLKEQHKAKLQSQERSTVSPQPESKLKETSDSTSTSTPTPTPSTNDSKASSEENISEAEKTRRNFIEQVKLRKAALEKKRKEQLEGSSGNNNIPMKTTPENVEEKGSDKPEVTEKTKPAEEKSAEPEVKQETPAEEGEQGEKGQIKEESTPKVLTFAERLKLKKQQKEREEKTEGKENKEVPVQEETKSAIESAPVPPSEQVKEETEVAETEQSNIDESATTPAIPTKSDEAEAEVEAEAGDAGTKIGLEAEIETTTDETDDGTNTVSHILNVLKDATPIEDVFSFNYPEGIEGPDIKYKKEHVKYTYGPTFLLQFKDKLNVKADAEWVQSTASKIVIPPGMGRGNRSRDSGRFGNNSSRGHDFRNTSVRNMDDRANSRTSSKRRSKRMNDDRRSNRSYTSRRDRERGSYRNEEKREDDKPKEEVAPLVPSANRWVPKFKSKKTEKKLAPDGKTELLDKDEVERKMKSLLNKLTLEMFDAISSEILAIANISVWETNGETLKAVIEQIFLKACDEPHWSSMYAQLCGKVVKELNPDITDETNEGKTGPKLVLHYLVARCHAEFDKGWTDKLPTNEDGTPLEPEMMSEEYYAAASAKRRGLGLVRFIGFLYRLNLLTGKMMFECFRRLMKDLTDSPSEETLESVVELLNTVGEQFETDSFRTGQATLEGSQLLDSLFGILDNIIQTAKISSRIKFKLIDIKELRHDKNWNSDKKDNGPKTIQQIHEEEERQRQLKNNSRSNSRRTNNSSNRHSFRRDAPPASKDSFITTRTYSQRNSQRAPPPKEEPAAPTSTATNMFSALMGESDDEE
T2 sequence (looked up) 2: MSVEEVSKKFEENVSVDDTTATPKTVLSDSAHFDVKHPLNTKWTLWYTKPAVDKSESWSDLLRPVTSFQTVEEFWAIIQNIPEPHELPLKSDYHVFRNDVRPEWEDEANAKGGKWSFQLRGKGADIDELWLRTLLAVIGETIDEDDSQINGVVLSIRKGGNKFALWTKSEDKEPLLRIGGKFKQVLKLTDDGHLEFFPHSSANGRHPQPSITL

[4] = target: T1, Ded1p-eIF4G complex; test: global fit of RNA unwinding time courses to a thermodynamic model; K1/2 of a binding step calculated with the model of Figure 4A; step without RNA, ATP bound to eIF4A
[5] = target: T2, eIF4G; test: as above
[6] = target: T1, Ded1p-eIF4G complex; test: global fit of RNA unwinding time courses to a thermodynamic model; K1/2 of a binding step calculated with the model of Figure 4A; RNA bound to the target before the step, ATP bound to eIF4A

Kd [1]: 0.006 nM
Kd [2]: 7 nM
Kd [3]: 1060 nM
Kd [4]: 0.28 nM
Kd [5]: 1000 nM
Kd [6]: 14 nM
B1: eIF4A (enzyme, S. cerevisiae, UniProt P10081 1-395, looked up)
chain: MSEGITDIEESQIQTNYDKVVYKFDDMELDENLLRGVFGYGFEEPSAIQQRAIMPIIEGHDVLAQAQSGTGKTGTFSIAALQRIDTSVKAPQALMLAPTRELALQIQKVVMALAFHMDIKVHACIGGTSFVEDAEGLRDAQIVVGTPGRVFDNIQRRRFRTDKIKMFILDEADEMLSSGFKEQIYQIFTLLPPTTQVVLLSATMPNDVLEVTTKFMRNPVRILVKKDELTLEGIKQFYVNVEEEEYKYECLTDLYDSISVTQAVIFCNTRRKVEELTTKLRNDKFTVSAIYSDLPQQERDTIMKEFRSGSSRILISTDLLARGIDVQQVSLVINYDLPANKENYIHRIGRGGRFGRKGVAINFVTNEDVGAMRELEKFYSTQIEELPSDIATLLN
notes: eIF4A, DEAD-box RNA helicase, S. cerevisiae, wild type; also called wild-type yeast eIF4A; source: recombinant, purified as described (Hilliker et al., 2011)
